B1: Serine/threonine-protein kinase Nek9 (Homo sapiens), Q8TD19 (parent)
chain: MSVLGEYERHCDSINSDFGSESGGCGDSSPGPSASQGPRAGGGAAEQEELHYIPIRVLGRGAFGEATLYRRTEDDSLVVWKEVDLTRLSEKERRDALNEIVILALLQHDNIIAYYNHFMDNTTLLIELEYCNGGNLYDKILRQKDKLFEEEMVVWYLFQIVSAVSCIHKAGILHRDIKTLNIFLTKANLIKLGDYGLAKKLNSEYSMAETLVGTPYYMSPELCQGVKYNFKSDIWAVGCVIFELLTLKRTFDATNPLNLCVKIVQGIRAMEVDSSQYSLELIQMVHSCLDQDPEQRPTADELLDRPLLRKRRREMEEKVTLLNAPTKRPRSSTVTEAPIAVVTSRTSEVYVWGGGKSTPQKLDVIKSGCSARQVCAGNTHFAVVTVEKELYTWVNMQGGTKLHGQLGHGDKASYRQPKHVEKLQGKAIRQVSCGDDFTVCVTDEGQLYAFGSDYYGCMGVDKVAGPEVLEPMQLNFFLSNPVEQVSCGDNHVVVLTRNKEVYSWGCGEYGRLGLDSEEDYYTPQKVDVPKALIIVAVQCGCDGTFLLTQSGKVLACGLNEFNKLGLNQCMSGIINHEAYHEVPYTTSFTLAKQLSFYKIRTIAPGKTHTAAIDERGRLLTFGCNKCGQLGVGNYKKRLGINLLGGPLGGKQVIRVSCGDEFTIAATDDNHIFAWGNGGNGRLAMTPTERPHGSDICTSWPRPIFGSLHHVPDLSCRGWHTILIVEKVLNSKTIRSNSSGLSIGTVFQSSSPGGGGGGGGGEEEDSQQESETPDPSGGFRGTMEADRGMEGLISPTEAMGNSNGASSSCPGWLRKELENAEFIPMPDSPSPLSAAFSESEKDTLPYEELQGLKVASEAPLEHKPQVEASSPRLNPAVTCAGKGTPLTPPACACSSLQVEVERLQGLVLKCLAEQQKLQQENLQIFTQLQKLNKKLEGGQQVGMHSKGTQTAKEEMEMDPKPDLDSDSWCLLGTDSCRPSL

Variants of: B1
Conditions: with plk1_human PLK1, P53350
Chain of plk1_human PLK1, P53350 (P53350 whole entry): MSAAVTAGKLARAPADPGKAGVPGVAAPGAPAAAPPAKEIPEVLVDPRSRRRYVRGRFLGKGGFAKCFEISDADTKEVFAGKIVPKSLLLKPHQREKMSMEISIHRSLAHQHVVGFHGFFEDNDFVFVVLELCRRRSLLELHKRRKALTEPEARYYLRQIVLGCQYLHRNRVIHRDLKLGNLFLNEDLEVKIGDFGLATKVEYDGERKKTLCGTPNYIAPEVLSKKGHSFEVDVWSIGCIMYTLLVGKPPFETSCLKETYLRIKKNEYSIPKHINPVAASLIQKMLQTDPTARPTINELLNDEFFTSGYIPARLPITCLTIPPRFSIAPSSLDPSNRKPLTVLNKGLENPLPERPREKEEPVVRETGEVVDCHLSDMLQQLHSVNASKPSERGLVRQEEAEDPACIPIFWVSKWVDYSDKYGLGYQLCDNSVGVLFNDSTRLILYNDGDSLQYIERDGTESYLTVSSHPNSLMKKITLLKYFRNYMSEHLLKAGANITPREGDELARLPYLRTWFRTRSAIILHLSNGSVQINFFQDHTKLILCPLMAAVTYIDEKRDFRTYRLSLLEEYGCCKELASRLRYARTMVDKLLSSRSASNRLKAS

Variant	effect of a mutation on the interaction
S869A	disrupting interaction

Variants of: B1
Conditions: with plk1_human PLK1, P53350
Remark: another data set of the same source

Variant	effect of a mutation on the interaction
S750A	decreasing interaction
